Assay results reported in patent US20120316071A1 (published 2012).
Each block holds one binder with its values, some of them ahead of it.

Assays:
[1] = target: T1, rHuman EGF R/Fc Chimera, CF (R&D Systems Cat#344-ER) (human, UniProt P00533 25-645); assay: MSD multispot ECL, antigen spotted on plate, Fab 1410 nM; blank spot 709
T1 construct: Bought from R&D Systems; also called epidermal growth factor receptor (EGF R); not shown: Fc of the bought chimera

[2] = target: T2, rHuman ErbB2/Fc Chimera, CF (R&D Systems Cat#1129-ER) (human, UniProt P04626 23-652); assay: as above
T2 construct: Bought from R&D Systems; also called human epidermal growth factor 2 receptor (ErbB2); not shown: Fc of the bought chimera

[3] = target: T3, rHuman Erythropoietin R/Fc Chimera, CF (R&D Systems Cat#963-ER) (human, UniProt P19235 25-250); assay: as above
T3 construct: Bought from R&D Systems; also called EPO R/Fc; Epo R/Fc chimera; not shown: Fc of the bought chimera
T3 sequence (looked up): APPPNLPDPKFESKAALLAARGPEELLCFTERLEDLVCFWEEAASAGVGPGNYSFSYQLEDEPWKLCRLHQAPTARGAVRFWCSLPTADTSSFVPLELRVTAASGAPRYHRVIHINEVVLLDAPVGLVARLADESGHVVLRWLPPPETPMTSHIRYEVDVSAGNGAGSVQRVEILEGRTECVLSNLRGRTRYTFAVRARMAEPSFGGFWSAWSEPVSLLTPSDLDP

[4] = target: T4, rHuman IGF-1 sR, (IGF-1 sR), CF (R&D Systems Cat#391-GR) (human, UniProt P08069 31-932); assay: as above
T4 construct: Bought from R&D Systems and called a soluble receptor; also called insulin-like growth factor-1 soluble receptor

[5] = target: T5, rHuman Notch-1/Fc Chimera, CF (R&D Systems Cat#3647-TK) (human, UniProt P46531 19-526); assay: as above
T5 construct: Bought from R&D Systems; not shown: Fc of the bought chimera

[6] = target: T6, rHuman P-Cadherin/Fc Chimera, CF (R&D Systems Cat#861-PC) (human, UniProt P22223 108-654); assay: as above
T6 construct: Bought from R&D Systems; not shown: Fc of the bought chimera

[7] = target: T7, rHuman ErbB2/Fc Chimera, CF (R&D Systems Cat#1129-ER) (human, UniProt P04626 23-652); assay: MSD Multispot ECL, antigen spotted on plate, Fab 130 nM; blank spot 1153
T7 construct: Bought reagent; also called human epidermal growth factor 2 receptor; Fc part of the bought chimera not given

[8] = target: T8, rHuman Erythropoietin R/Fc Chimera, CF (R&D Systems Cat#963-ER) (human, UniProt P19235 25-250); assay: Multispot ECL (MSD), antigen spotted on plate, Fab 500 nM; blank spot 680
T8 construct: Bought recombinant protein; also called EPO R/Fc; Epo R; Fc part of the bought chimera not given
T8 sequence (looked up): T3 sequence (looked up)

[9] = target: T9, rHuman Notch-1/Fc Chimera, CF (R&D Systems Cat#3647-TK) (human, UniProt P46531 19-526); assay: as above
T9 construct: Bought recombinant protein; Fc part of the bought chimera not given

[10] = target: T10, Recombinant Human DLL4 (R&D Systems Cat#1506-D4/CF) (human, UniProt Q9NR61 27-524); assay: as above
T10 construct: Bought recombinant protein; also called rHuman DLL4; delta-like protein 4

[11] = target: T11, rHuman IGF-1 sR, CF (R&D Systems Cat#391-GR) (human, UniProt P08069 31-932); assay: as above
T11 construct: Bought recombinant soluble receptor; also called insulin-like growth factor-1 soluble receptor

[12] = target: T12, rHuman Erythropoietin R/Fc Chimera, CF (R&D Systems Cat#963-ER) (human, UniProt P19235 25-250); assay: Multispot ECL (MSD) titration; antigen spotted on plate; Fab 232.5 nM; blank spot 460
T12 construct: Bought Fc chimera; also called EPO R/Fc; EPO R; Fc part of the bought chimera not given
T12 sequence (looked up): T3 sequence (looked up)

[13] = target: T13, rHuman IGF-1 sR (IGF-1 sR), CF (R&D Systems Cat#391-GR) (human, UniProt P08069 31-932); assay: as above
T13 construct: Bought soluble receptor; also called insulin-like growth factor-1 soluble receptor

[14] = target: T14, Recombinant Human DLL4 (R&D Systems Cat#1506-D4/CF) (human, UniProt Q9NR61 27-524); assay: as above
T14 construct: Bought recombinant protein; also called delta-like protein 4; rHuman DLL4

[15] = target: T15, rHuman CD44/Fc Chimera, CF (R&D Systems Cat#3660-CD) (human, UniProt P16070 21-220); assay: as above
T15 construct: Bought Fc chimera; Fc part of the bought chimera not given

[16] = target: T16, rHuman Notch-1/Fc Chimera, CF (R&D Systems Cat#3647-TK) (human, UniProt P46531 19-526); assay: as above
T16 construct: Bought Fc chimera; Fc part of the bought chimera not given

[17] = target: T17, rHuman ErbB2/Fc Chimera, CF (R&D Systems Cat#1129-ER) (human, UniProt P04626 23-652); assay: as above
T17 construct: Bought Fc chimera; also called human epidermal growth factor 2 receptor; Fc part of the bought chimera not given

[18] = target: T18, rHuman P-Cadherin/Fc Chimera, CF (R&D Systems Cat#861-PC) (human, UniProt P22223 108-654); assay: as above
T18 construct: Bought Fc chimera; Fc part of the bought chimera not given

B1: Fab VH1-46_IGHD3-10*01_IGHJ4*01 & B3_IGKJ1*01 (Fab, V domains shown)
VH: QVQLVQSGAEVKKPGASVKVSCKASGYTFTSYYMHWVRQAPGQGLEWMGIINPSGGSTSYAQKFQGRVTMTRDTSTSTVYMELSSLRSEDTAVYYCAREYYYGSGSYYNDYFDYWGQGTLVTVSS
VL: not shown
notes: Tested as a Fab made in E. coli; VH was cloned into Plasmid A (CH1 constant region, His6 and Flag tags); The kappa VL was cloned into Plasmid C (kappa CL)
ECL signal [1]: 1070
ECL signal [2]: 932
ECL signal [3]: 4310
ECL signal [4]: 426
ECL signal [5]: 1030
ECL signal [6]: 1060

B2: Fab VH1-8_IGHD2-2*01_IGHJ6*01 & L12_IGKJ1*01 (Fab, V domains shown)
VH: QVQLVQSGAEVKKPGASVKVSCKASGYTFTSYDINWVRQATGQGLEWMGWMNPNSGNTGYAQKFQGRVTMTRNTSISTAYMELSSLRSEDTAVYYCARGGYCSSTSCYADYYYYYGMDVWGQGTTVTVSS
VL: not shown
ECL signal [7]: 1530

Results, then the binder that gave them:

ECL signal [8]: 10300
ECL signal [9]: 1980
ECL signal [10]: 2320
ECL signal [11]: 1330
B3: Fab VH1-46_IGHD6-13*01_IGHJ4*01 & B3_IGKJ1*01 (Fab, V domains shown)
VH: QVQLVQSGAEVKKPGASVKVSCKASGYTFTSYYMHWVRQAPGQGLEWMGIINPSGGSTSYAQKFQGRVTMTRDTSTSTVYMELSSLRSEDTAVYYCAREGYSSSWYDYFDYWGQGTLVTVSS
VL: not shown
notes: Germline Fab made in E. coli; VH was cloned into Plasmid A (CH1, His6 and Flag tags) and the kappa VL into Plasmid C (kappa CL)

ECL signal [12]: 1470
ECL signal [13]: 569
ECL signal [14]: 3590
ECL signal [15]: 607
ECL signal [16]: 778
ECL signal [17]: 779
ECL signal [18]: 655
B4: Fab VH1-46_IGHD6-13*01_IGHJ4*01 & O1_IGKJ1*01 (Fab, V domains shown)
VH: B3 VH
VL: DIVMTQTPLSLPVTPGEPASISCRSSQSLLDSDDGNTYLDWYLQKPGQSPQLLIYTLSYRASGVPDRFSGSGSGTDFTLKISRVEAEDVGVYYCMQRIEFPSWTFGQGTKVEIKR
notes: Germline library Fab expressed in E. coli; VH was cloned into Plasmid A (CH1 constant region, His6 and Flag tags); The kappa VL was cloned into Plasmid C (kappa CL)
